Assay results as given in article PMC9986708.

How the values were obtained:
[1] = target: apolipoprotein E ɛ3 (apoE ɛ3) (human (endogenous in plasma)) (UniProt P02649); experiment: non-reducing SDS-PAGE with western blot
[2] = target: apolipoprotein E ɛ2 (apoE ɛ2) (human (endogenous in plasma)) (UniProt P02649); experiment: non-reducing SDS-PAGE with western blot

stoichiometry N [1]	stoichiometry N [2]	Substance
2		apolipoprotein E ɛ3 (apoE ɛ3) (from UniProt P02649 19-317) (natural protein)
	2	apolipoprotein E ɛ2 (apoE ɛ2) (from UniProt P02649 19-317) (natural protein)
